# Results published in the supplement of paper PMC10724198.
# ± gives the standard deviation of the averaged measurements.
# Test system: Saccharomyces cerevisiae
# Assay: protein stability index of tFT-peptide fusion (C-terminal peptide) (PSI (0-1 scale)); higher = more stable (slower turnover)
# Conditions: genetic background: wild type; temperature: 30 C
# Protocol: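 Multiplexed protein stability (MPS) profiling in S. cerevisiae. Random 12-aa peptides (tFT-X12 library) are fused to the C-terminus of a sfGFP-mCherry tandem fluorescent timer, after mCherry and a GGGS linker. Cells are FACS-sorted into 8 mCherry/sfGFP bins and deep-sequenced. The protein stability index (PSI) is the read-weighted bin average, scaled from 0 (unstable) to 1 (stable). Only peptides with >10 reads are reported; cells were grown at 30 °C in SC-His with glucose.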
# 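Note: PSI is a weighted mean of sequencing reads over stability bins, variants kept only with over 10 reads, mCherry proximal and sfGFP distal, peptide attached via GGGS linker.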
row,Sequence,protein stability index
1,AACNGGPMNQTR,0.7 ± 0.086
2,AAPKSGARASLW,0.728 ± 0.084
3,AAQDTRAHYRTR,0.704 ± 0.044
4,AAREVSPGNVCH,0.731 ± 0.065
5,AARSEVASAAGR,0.643 ± 0.016
6,AASPHHPSQTAL,0.6831 ± 0.0063
7,AASSDGWHTGGA,0.694 ± 0.0032
8,AAVLFVHATSHE,0.685 ± 0.061
9,AAWLSQLNKVNV,0.6679 ± 0.0014
10,ACCPPRLAPPPL,0.675 ± 0.016
11,ACGALAKMILFW,0.663 ± 0.059
12,ACPAPPPPQLPR,0.593 ± 0.031
13,ACRLWWRRGGEG,0.61 ± 0.045
14,ACRPRPPLSRSP,0.739 ± 0.032
15,ACSTALPFSFAS,0.689 ± 0.0074
16,ACVSWLPVPRQS,0.6964 ± 0.0062
17,ADGLVGLLLSVV,0.62 ± 0.024
18,ADMLETFSVHLG,0.666 ± 0.011
19,ADVWSCAFCFDC,0.595 ± 0.033
20,AEGGGWSFELEG,0.746 ± 0.02
21,AFCVSVLVGLGG,0.487 ± 0.052
22,AFFVAFLPLLSR,0.552 ± 0.031
23,AFLPLYFLEGVL,0.702 ± 0.024
24,AFLTSYHPPPLP,0.69 ± 0.059
25,AFNRYASRIQEV,0.695 ± 0.02

row,Sequence,protein stability index
1,AFPLFTDLTRVP,0.7692 ± 0.0066
2,AFPPVIPALFSV,0.697 ± 0.027
3,AFRGRGAFKYCL,0.683 ± 0.1
4,AFSLRGRSVMFY,0.688 ± 0.025
5,AFTLQSRLSSPS,0.655 ± 0.012
6,AFVEGMAYLLII,0.524 ± 0.017
7,AGAGLGVVLGWW,0.684 ± 0.017
8,AGCVLDGRGVVA,0.615 ± 0.074
9,AGGGGGRGSAGA,0.711 ± 0.011
10,AGGGGGVTASGA,0.71 ± 0.063
11,AGGGGRLTRSRA,0.691 ± 0.087
12,AGGGHCVGMGVG,0.642 ± 0.037
13,AGGPRVRGAAGR,0.698 ± 0.055
14,AGKYCCFMVFVV,0.649 ± 0.033
15,AGLESFFHYSYF,0.7487 ± 0.0002
16,AGLIRDAVILIG,0.631 ± 0.021
17,AGLTGSREGWRG,0.638 ± 0.041
18,AGPGSSSTNHES,0.585 ± 0.015
19,AGPPRGVCARWC,0.635 ± 0.011
20,AGRGRGPRSAGS,0.657 ± 0.014
21,AGRRVPVMMYGS,0.691 ± 0.022
22,AGRVGGFFFVVA,0.608 ± 0.017
23,AGSCRCRTCCLV,0.61354 ± 0.00038
24,AGSLCSVVFFSG,0.688 ± 0.23
25,AGSQEDGRSIKG,0.669 ± 0.024

row,Sequence,protein stability index
1,AGSRGIVREIVL,0.68 ± 0.052
2,AGVASTETREGG,0.685 ± 0.0073
3,AGVGLAETAGDD,0.677 ± 0.016
4,AGVGMGAVAGGS,0.705 ± 0.02
5,AGWGRRRLDGGR,0.684 ± 0.02
6,AHFSRRSSSSVS,0.7 ± 0.02
7,AHLLLRPPLVAH,0.486 ± 0.029
8,AHPLSPLSSPLR,0.682 ± 0.081
9,AHVDWRLPEPNR,0.7172 ± 0.0069
10,AIGAVEGGRMRE,0.5748 ± 0.0048
11,AIQNSNLNTKVR,0.675 ± 0.033
12,AIVWGVGCGSVG,0.738 ± 0.12
13,AKLNQLMSKSQI,0.678 ± 0.02
14,AKRRELKCRVNL,0.674 ± 0.0087
15,AKSRQRKNGRTG,0.708 ± 0.026
16,AKYPAQASTEPL,0.702 ± 0.028
17,ALALCLVFFFSI,0.574 ± 0.065
18,ALAYSLQRSPRV,0.616 ± 0.045
19,ALESHFMVPSFP,0.693 ± 0.043
20,ALGHAKDSVYGM,0.679 ± 0.041
21,ALGRWAVSCNRG,0.71 ± 0.11
22,ALLFCVCCGFFF,0.541 ± 0.013
23,ALPGHFCVSFLP,0.752 ± 0.033
24,ALPPPRPPPPSP,0.692 ± 0.034
25,ALRAGGRPYSVS,0.716 ± 0.014

row,Sequence,protein stability index
1,ALRGESWKSKQG,0.664 ± 0.13
2,ALSRLLPPRPPV,0.608 ± 0.027
3,ALTWVGEGLRGS,0.699 ± 0.027
4,ALYQNWITITRN,0.657 ± 0.022
5,AMGIPLLTTHFI,0.674 ± 0.064
6,AMPLPPPTPPRS,0.627 ± 0.027
7,ANHRPCIPPPPR,0.657 ± 0.073
8,APACVAGGGQRL,0.681 ± 0.081
9,APAFLSLVSFAS,0.673 ± 0.017
10,APAPAPARTPTR,0.683 ± 0.016
11,APAPSLPTSGEL,0.701 ± 0.092
12,APDRGWAEGQCS,0.727 ± 0.018
13,APGGACINIQLM,0.663 ± 0.044
14,APHPTPYVRRHC,0.74 ± 0.041
15,APLRAPYPPPPY,0.7153 ± 0.0014
16,APLRSSCVFLFP,0.744 ± 0.17
17,APLSRPLRLPHP,0.692 ± 0.022
18,APPCILCLFPAC,0.716 ± 0.024
19,APPLPPSPPSAR,0.729 ± 0.11
20,APPLPSAPPPPR,0.668 ± 0.031
21,APPPGSTFVSCE,0.674 ± 0.045
22,APPPLPLPPPAP,0.705 ± 0.033
23,APPPLPSPRPAA,0.699 ± 0.04
24,APPPPPPPPSFP,0.687 ± 0.055
25,APPPRPLKLFPP,0.611 ± 0.028

row,Sequence,protein stability index
1,APPPRSPPPTPH,0.696 ± 0.012
2,APPRPHTPLPRP,0.75 ± 0.07
3,APPRSPRSLPPL,0.658 ± 0.013
4,APPVILPPSGPP,0.654 ± 0.028
5,APPVPLWVNPRT,0.7 ± 0.025
6,APQTELTGVLFG,0.685 ± 0.0071
7,APSCPKSLTFLD,0.734 ± 0.035
8,APSLLAPPPLRP,0.674 ± 0.017
9,APSLPPRLPWLY,0.737 ± 0.015
10,APSPPSHPAAIP,0.741 ± 0.042
11,APSPPVPTGPRP,0.664 ± 0.059
12,APSTPTPPPPPP,0.686 ± 0.042
13,APVQLDNKVVLM,0.699 ± 0.04
14,APWSVSAGCFLF,0.687 ± 0.036
15,AQTVNNALAKPI,0.6551 ± 0.0049
16,ARAEDLLVFLPL,0.691 ± 0.039
17,AREGARVVPVGR,0.717 ± 0.014
18,AREGGGRAGRRE,0.729 ± 0.021
19,ARGRAVRAAGAS,0.688 ± 0.088
20,ARIECLIFPGCK,0.626 ± 0.022
21,ARKCPLLYGPMA,0.662 ± 0.04
22,ARKDVTRKSSND,0.665 ± 0.064
23,ARLGKASYSVFS,0.729 ± 0.027
24,ARNVDNIGYENS,0.698 ± 0.013
25,ARRAPTFFSLWR,0.658 ± 0.049

row,Sequence,protein stability index
1,ARRAVPGRGCEV,0.683 ± 0.066
2,ARRGIVQSRCNW,0.684 ± 0.064
3,ARRRINKKIKKV,0.554 ± 0.018
4,ARVAGECRCGRT,0.6554 ± 0.00095
5,ASAGTVYLTLLP,0.697 ± 0.072
6,ASFMSPPSAPLA,0.6953 ± 0.0047
7,ASGGGPLGNSSR,0.684 ± 0.043
8,ASGPLPPHPIAD,0.677 ± 0.011
9,ASKKSVVFKQKT,0.6586 ± 0.0013
10,ASLGPCLPLSLN,0.695 ± 0.03
11,ASPAASSPYGTR,0.733 ± 0.051
12,ASPAIDSETSEY,0.686 ± 0.16
13,ASPFCRPNRHLL,0.648 ± 0.031
14,ASPLYPRPPVRG,0.651 ± 0.014
15,ASPSSAAQPLSP,0.641 ± 0.099
16,ASSPLFLPAIQP,0.63 ± 0.06
17,ASTPLPTSPPPP,0.66 ± 0.036
18,ASVIWGGFSDSR,0.719 ± 0.015
19,ASVTSKSNCSGI,0.663 ± 0.037
20,ASYFPLRLLGFL,0.65 ± 0.051
21,ATDWPELFLPFG,0.666 ± 0.007
